Experimental data from the supplement of paper PMC10567573.

B1: KLHL14 (parent)
chain: NETGYLSSVECYNLETNEWRYVSS
B2: ANKRD9 (parent)
chain: VGAAGSARQELLGDRPRWQRLLGE

Variants of: B1
Assay: protein stability index of a GFP-peptide fusion (GPS, HEK-293T) (PSI 1-6); higher = more stable
Details: c terminus: a fixed tail appended
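Also: lentivirally expressed fusions sorted by FACS into six bins by GFP to DsRed ratio, PSI derived from sequencing read proportions per bin multiplied by bin number.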

Variant	protein stability index
NGTGYLSSVECYNLETNEWRYVSS [E2G]	2.43
NDTGYLSSVECYNLETNEWRYVSS [E2D]	3.52
NKTGYLSSVECYNLETNEWRYVSS [E2K]	2.69
NRTGYLSSVECYNLETNEWRYVSS [E2R]	2.49
NSTGYLSSVECYNLETNEWRYVSS [E2S]	2.78
NLTGYLSSVECYNLETNEWRYVSS [E2L]	2.09
NVTGYLSSVECYNLETNEWRYVSS [E2V]	2.51
NWTGYLSSVECYNLETNEWRYVSS [E2W]	3.64
NPTGYLSSVECYNLETNEWRYVSS [E2P]	2.72
NQTGYLSSVECYNLETNEWRYVSS [E2Q]	2.35
NCTGYLSSVECYNLETNEWRYVSS [E2C]	2.7
NITGYLSSVECYNLETNEWRYVSS [E2I]	2.37
NHTGYLSSVECYNLETNEWRYVSS [E2H]	2.02
NTTGYLSSVECYNLETNEWRYVSS [E2T]	2.67
NMTGYLSSVECYNLETNEWRYVSS [E2M]	2.55
NNTGYLSSVECYNLETNEWRYVSS [E2N]	2.78
NATGYLSSVECYNLETNEWRYVSS [E2A]	2.68
NFTGYLSSVECYNLETNEWRYVSS [E2F]	1.72
GETGYLSSVECYNLETNEWRYVSS [N1G]	2.71

Variant	protein stability index
IETGYLSSVECYNLETNEWRYVSS [N1I]	2.43
PETGYLSSVECYNLETNEWRYVSS [N1P]	3.49
KETGYLSSVECYNLETNEWRYVSS [N1K]	3.55
DETGYLSSVECYNLETNEWRYVSS [N1D]	3.23
TETGYLSSVECYNLETNEWRYVSS [N1T]	2.83
AETGYLSSVECYNLETNEWRYVSS [N1A]	3.05
HETGYLSSVECYNLETNEWRYVSS [N1H]	3.44
YETGYLSSVECYNLETNEWRYVSS [N1Y]	2.79
LETGYLSSVECYNLETNEWRYVSS [N1L]	3.04
FETGYLSSVECYNLETNEWRYVSS [N1F]	2.63
SETGYLSSVECYNLETNEWRYVSS [N1S]	3.69
CETGYLSSVECYNLETNEWRYVSS [N1C]	2.41
QETGYLSSVECYNLETNEWRYVSS [N1Q]	3.31
RETGYLSSVECYNLETNEWRYVSS [N1R]	2.55
EETGYLSSVECYNLETNEWRYVSS [N1E]	3.95
VETGYLSSVECYNLETNEWRYVSS [N1V]	3.3
METGYLSSVECYNLETNEWRYVSS [N1M]	2.18
WETGYLSSVECYNLETNEWRYVSS [N1W]	1.71

Variants of: B2
Assay: as above
Details: c terminus: a fixed tail appended

Variant	protein stability index
VGAAGSARQELLGDRPRWPRLLGE [Q19P]	3.79
VGAAGSARQELLGDRPRWIRLLGE [Q19I]	2.98
VGAAGSARQELLGDRPRWCRLLGE [Q19C]	3.27
VGAAGSARQELLGDRPRWTRLLGE [Q19T]	2.49
VGAAGSARQELLGDRPRWSRLLGE [Q19S]	2.91
VGAAGSARQELLGDRPRWFRLLGE [Q19F]	2.51
VGAAGSARQELLGDRPRWYRLLGE [Q19Y]	2.59
VGAAGSARQELLGDRPRWVRLLGE [Q19V]	2.9
VGAAGSARQELLGDRPRWDRLLGE [Q19D]	2.83
VGAAGSARQELLGDRPRWGRLLGE [Q19G]	2.94
VGAAGSARQELLGDRPRWNRLLGE [Q19N]	3.94
VGAAGSARQELLGDRPRWMRLLGE [Q19M]	3.26
VGAAGSARQELLGDRPRWLRLLGE [Q19L]	2.56
VGAAGSARQELLGDRPRWARLLGE [Q19A]	2.15
VGAAGSARQELLGDRPRWHRLLGE [Q19H]	3.14
VGAAGSARQELLGDRPRWERLLGE [Q19E]	2.58
VGAAGSARQELLGDRPRWWRLLGE [Q19W]	2.81
VGAAGSARQELLGDRPYWQRLLGE [R17Y]	2.37
VGAAGSARQELLGDRPGWQRLLGE [R17G]	3.5
VGAAGSARQELLGDRPQWQRLLGE [R17Q]	3.47
VGAAGSARQELLGDRPLWQRLLGE [R17L]	2.73
VGAAGSARQELLGDRPIWQRLLGE [R17I]	2.83
VGAAGSARQELLGDRPTWQRLLGE [R17T]	3.43
VGAAGSARQELLGDRPFWQRLLGE [R17F]	1.94
VGAAGSARQELLGDRPSWQRLLGE [R17S]	4.09
VGAAGSARQELLGDRPAWQRLLGE [R17A]	3.33

Variant	protein stability index
VGAAGSARQELLGDRPHWQRLLGE [R17H]	4.01
VGAAGSARQELLGDRPKWQRLLGE [R17K]	3.53
VGAAGSARQELLGDRPVWQRLLGE [R17V]	3
VGAAGSARQELLGDRPWWQRLLGE [R17W]	2.61
VGAAGSARQELLGDRPPWQRLLGE [R17P]	4.29
VGAAGSARQELLGDRPNWQRLLGE [R17N]	3.29
VGAAGSARQELLGDRPMWQRLLGE [R17M]	2.72
VGAAGSARQELLGDRPDWQRLLGE [R17D]	3.41
VGAAGSARQELLGDRPEWQRLLGE [R17E]	3.81
VGAAGSARQELLGDRPRKQRLLGE [W18K]	4.64
VGAAGSARQELLGDRPRTQRLLGE [W18T]	4.63
VGAAGSARQELLGDRPRFQRLLGE [W18F]	3.54
VGAAGSARQELLGDRPRPQRLLGE [W18P]	4.98
VGAAGSARQELLGDRPRMQRLLGE [W18M]	3.57
VGAAGSARQELLGDRPRYQRLLGE [W18Y]	3.78
VGAAGSARQELLGDRPRSQRLLGE [W18S]	4.2
VGAAGSARQELLGDRPRQQRLLGE [W18Q]	4.1
VGAAGSARQELLGDRPRVQRLLGE [W18V]	4.4
VGAAGSARQELLGDRPRHQRLLGE [W18H]	4.14
VGAAGSARQELLGDRPRRQRLLGE [W18R]	4.93
VGAAGSARQELLGDRPRAQRLLGE [W18A]	4.38
VGAAGSARQELLGDRPRDQRLLGE [W18D]	4.63
VGAAGSARQELLGDRPRNQRLLGE [W18N]	4.11
VGAAGSARQELLGDRPRLQRLLGE [W18L]	4.36
VGAAGSARQELLGDRPREQRLLGE [W18E]	4.45
VGAAGSARQELLGDRPRGQRLLGE [W18G]	5.32

Variant	protein stability index
VGAAGSARQELLGDRPRWQALLGE [R20A]	2.58
VGAAGSARQELLGDRPRWQWLLGE [R20W]	3.32
VGAAGSARQELLGDRPRWQILLGE [R20I]	2.07
VGAAGSARQELLGDRPRWQLLLGE [R20L]	2.72
VGAAGSARQELLGDRPRWQTLLGE [R20T]	2.67
VGAAGSARQELLGDRPRWQVLLGE [R20V]	2.81
VGAAGSARQELLGDRPRWQYLLGE [R20Y]	2.62
VGAAGSARQELLGDRPRWQELLGE [R20E]	2.18
VGAAGSARQELLGDRPRWQKLLGE [R20K]	2.71
VGAAGSARQELLGDRPRWQSLLGE [R20S]	2.87
VGAAGSARQELLGDRPRWQNLLGE [R20N]	3.46
VGAAGSARQELLGDRPRWQPLLGE [R20P]	2.19
VGAAGSARQELLGDRPRWQFLLGE [R20F]	3.28
VGAAGSARQELLGDRPRWQCLLGE [R20C]	2.71
VGAAGSARQELLGDRPRWQDLLGE [R20D]	1.25
VGAAGSARQELLGDRPRWQQLLGE [R20Q]	2.68
VGAAGSARQELLGDRPRWQHLLGE [R20H]	2.52
VGAAGSARQELLGDRPRWQMLLGE [R20M]	2.81
VGAAGSARQELLGDRPRWQGLLGE [R20G]	2.74
VGAAGSARQELLGDRPRWQRLMGE [L22M]	2.28
VGAAGSARQELLGDRPRWQRLNGE [L22N]	3.13
VGAAGSARQELLGDRPRWQRLVGE [L22V]	3.68
VGAAGSARQELLGDRPRWQRLFGE [L22F]	2.93
VGAAGSARQELLGDRPRWQRLKGE [L22K]	3.57
VGAAGSARQELLGDRPRWQRLHGE [L22H]	3.53
VGAAGSARQELLGDRPRWQRLCGE [L22C]	3.35

Variant	protein stability index
VGAAGSARQELLGDRPRWQRLEGE [L22E]	3.87
VGAAGSARQELLGDRPRWQRLQGE [L22Q]	3.64
VGAAGSARQELLGDRPRWQRLGGE [L22G]	3.31
VGAAGSARQELLGDRPRWQRLIGE [L22I]	3.18
VGAAGSARQELLGDRPRWQRLPGE [L22P]	3.77
VGAAGSARQELLGDRPRWQRLSGE [L22S]	3.96
VGAAGSARQELLGDRPRWQRLDGE [L22D]	4.11
VGAAGSARQELLGDRPRWQRLYGE [L22Y]	2.42
VGAAGSARQELLGDRPRWQRLTGE [L22T]	3.69
VGAAGSARQELLGDRPRWQRLWGE [L22W]	2.96
VGAAGSARQELLGDRPRWQRLRGE [L22R]	3.67
VGAAGSARQELLGDRPRWQRLAGE [L22A]	3.43
VGAAGSARQELLGDRPRWQRLLGP [E24P]	2.75
VGAAGSARQELLGDRPRWQRLLGV [E24V]	2.45
VGAAGSARQELLGDRPRWQRLLGM [E24M]	3.34
VGAAGSARQELLGDRPRWQRLLGA [E24A]	3
VGAAGSARQELLGDRPRWQRLLGY [E24Y]	2.37
VGAAGSARQELLGDRPRWQRLLGR [E24R]	3.26
VGAAGSARQELLGDRPRWQRLLGK [E24K]	3.7
VGAAGSARQELLGDRPRWQRLLGI [E24I]	2.27
VGAAGSARQELLGDRPRWQRLLGH [E24H]	2.96
VGAAGSARQELLGDRPRWQRLLGS [E24S]	2.77
VGAAGSARQELLGDRPRWQRLLGG [E24G]	3.2
VGAAGSARQELLGDRPRWQRLLGQ [E24Q]	2.63
VGAAGSARQELLGDRPRWQRLLGL [E24L]	2.38
VGAAGSARQELLGDRPRWQRLLGF [E24F]	2.68

Variant	protein stability index
VGAAGSARQELLGDRPRWQRLLGT [E24T]	3
VGAAGSARQELLGDRPRWQRLLGC [E24C]	2.1
VGAAGSARQELLGDRPRWQRLLGW [E24W]	2.33
VGAAGSARQELLGDRPRWQRLLGD [E24D]	3.13
VGAAGSARQELLGDRPRWQRLLGN [E24N]	3.17
VGAAGSARQELLGDRPRWQRVLGE [L21V]	3.67
VGAAGSARQELLGDRPRWQRCLGE [L21C]	3.75
VGAAGSARQELLGDRPRWQRGLGE [L21G]	2.93
VGAAGSARQELLGDRPRWQRKLGE [L21K]	4
VGAAGSARQELLGDRPRWQRYLGE [L21Y]	2.28
VGAAGSARQELLGDRPRWQRALGE [L21A]	3.28
VGAAGSARQELLGDRPRWQRQLGE [L21Q]	3.32
VGAAGSARQELLGDRPRWQRHLGE [L21H]	2.86
VGAAGSARQELLGDRPRWQRELGE [L21E]	4.67
VGAAGSARQELLGDRPRWQRTLGE [L21T]	3.13
VGAAGSARQELLGDRPRWQRWLGE [L21W]	3.23
VGAAGSARQELLGDRPRWQRDLGE [L21D]	4.72
VGAAGSARQELLGDRPRWQRRLGE [L21R]	3.11
VGAAGSARQELLGDRPRWQRMLGE [L21M]	3.03
VGAAGSARQELLGDRPRWQRILGE [L21I]	2.93
VGAAGSARQELLGDRPRWQRFLGE [L21F]	2.68
VGAAGSARQELLGDRPRWQRSLGE [L21S]	4.52
VGAAGSARQELLGDRPRWQRNLGE [L21N]	3.71
VGAAGSARQELLGDRPRWQRLLQE [G23Q]	3.4
VGAAGSARQELLGDRPRWQRLLCE [G23C]	2.88
VGAAGSARQELLGDRPRWQRLLEE [G23E]	3.39

Variant	protein stability index
VGAAGSARQELLGDRPRWQRLLNE [G23N]	3.12
VGAAGSARQELLGDRPRWQRLLPE [G23P]	3.22
VGAAGSARQELLGDRPRWQRLLDE [G23D]	3.84
VGAAGSARQELLGDRPRWQRLLVE [G23V]	2.78
VGAAGSARQELLGDRPRWQRLLLE [G23L]	3.58
VGAAGSARQELLGDRPRWQRLLHE [G23H]	2.61
VGAAGSARQELLGDRPRWQRLLSE [G23S]	4.39
VGAAGSARQELLGDRPRWQRLLIE [G23I]	2.88
VGAAGSARQELLGDRPRWQRLLFE [G23F]	2.71
VGAAGSARQELLGDRPRWQRLLME [G23M]	3.23
VGAAGSARQELLGDRPRWQRLLYE [G23Y]	2.88
VGAAGSARQELLGDRPRWQRLLTE [G23T]	2.98
VGAAGSARQELLGDRPRWQRLLAE [G23A]	3.1
VGAAGSARQELLGDRPRWQRLLKE [G23K]	3.19
VGAAGSARQELLGDRPRWQRLLWE [G23W]	2.64
VGAAGSARQELLGDRPRWQRLLRE [G23R]	2.99
VGAAGSARQELLGDRVRWQRLLGE [P16V]	3.35
VGAAGSARQELLGDRRRWQRLLGE [P16R]	3.31
VGAAGSARQELLGDRSRWQRLLGE [P16S]	3.16
VGAAGSARQELLGDRWRWQRLLGE [P16W]	1.84
VGAAGSARQELLGDRYRWQRLLGE [P16Y]	3.28
